The target of this test is 80S ribosome (rabbit (endogenous in reticulocyte lysate)). The experiment in a line: co-sedimentation.

On to “SRdC, SRαβΔTM with the CBR of SRα (residues 129–176) replaced with (GS)6 (from UniProt P08240;Q9Y5M8) (complex)”, for which the fold reduction of cosedimentation against WT SR was more than 2 fold.
In the case of “SRdR, SRαβΔTM with the RBR of SRα (residues 205–250) replaced with (GS)6 (from UniProt P08240;Q9Y5M8) (complex)”, the fold reduction of cosedimentation against WT SR was more than 2 fold.

The values above are taken from PMC6781444.
